According to paper PMC2716658 (Nature structural & molecular biology, 2009):

B1: WAVE1 (subunit of the recombinant human WRC) (natural protein)
chain: MPLVKRNIDPRHLCHTALPRGIKNELECVTNISLANIIRQLSSLSKYAEDIFGELFNEAHSFSFRVNSLQERVDRLSVSVTQLDPKEEELSLQDITMRKAFRSSTIQDQQLFDRKTLPIPLQETYDVCEQPPPLNILTPYRDDGKEGLKFYTNPSYFFDLWKEKMLQDTEDKRKEKRKQKQKNLDRPHEPEKVPRAPHDRRREWQKLAQGPELAEDDANLLHKHIEVANGPASHFETRPQTYVDHMDGSYSLSALPFSQMSELLTRAEERVLVRPHEPPPPPPMHGAGDAKPIPTCISSATGLIENRPQSPATGRTPVFVSPTPPPPPPPLPSALSTSSLRASMTSTPPPPVPPPPPPPATALQAPAVPPPPAPLQIAPGVLHPAPPPIAPPLVQPSPPVARAAPVCETVPVHPLPQGEVQGLPPPPPPPPLPPPGIRPSSPVTVTALAHPPSGLHPTPSTAPGPHVPLMPPSPPSQVIPASEPKRHPSTLPVISDARSVLLEAIRKGIQLRKVEEQREQEAKHERIENDVATILSRRIAVEYSDSEDDSEFDEVDWLE
B2: Sra1 (natural protein)
chain: MAAQVTLEDALSNVDLLEELPLPDQQPCIEPPPSSLLYQPNFNTNFEDRNAFVTGIARYIEQATVHSSMNEMLEEGQEYAVMLYTWRSCSRAIPQVKCNEQPNRVEIYEKTVEVLEPEVTKLMNFMYFQRNAIERFCGEVRRLCHAERRKDFVSEAYLITLGKFINMFAVLDELKNMKCSVKNDHSAYKRAAQFLRKMADPQSIQESQNLSMFLANHNKITQSLQQQLEVISGYEELLADIVNLCVDYYENRMYLTPSEKHMLLKVMGFGLYLMDGSVSNIYKLDAKKRINLSKIDKYFKQLQVVPLFGDMQIELARYIKTSAHYEENKSRWTCTSSGSSPQYNICEQMIQIREDHMRFISELARYSNSEVVTGSGRQEAQKTDAEYRKLFDLALQGLQLLSQWSAHVMEVYSWKLVHPTDKYSNKDCPDSAEEYERATRYNYTSEEKFALVEVIAMIKGLQVLMGRMESVFNHAIRHTVYAALQDFSQVTLREPLRQAIKKKKNVIQSVLQAIRKTVCDWETGHEPFNDPALRGEKDPKSGFDIKVPRRAVGPSSTQLYMVRTMLESLIADKSGSKKTLRSSLEGPTILDIEKFHRESFFYTHLINFSETLQQCCDLSQLWFREFFLELTMGRRIQFPIEMSMPWILTDHILETKEASMMEYVLYSLDLYNDSAHYALTRFNKQFLYDEIEAEVNLCFDQFVYKLADQIFAYYKVMAGSLLLDKRLRSECKNQGATIHLPPSNRYETLLKQRHVQLLGRSIDLNRLITQRVSAAMYKSLELAIGRFESEDLTSIVELDGLLEINRMTHKLLSRYLTLDGFDAMFREANHNVSAPYGRITLHVFWELNYDFLPNYCYNGSTNRFVRTVLPFSQEFQRDKQPNAQPQYLHGSKALNLAYSSIYGSYRNFVGPPHFQVICRLLGYQGIAVVMEELLKVVKSLLQGTILQYVKTLMEVMPKICRLPRHEYGSPGILEFFHHQLKDIVEYAELKTVCFQNLREVGNAILFCLLIEQSLSLEEVCDLLHAAPFQNILPRVHVKEGERLDAKMKRLESKYAPLHLVPLIERLGTPQQIAIAREGDLLTKERLCCGLSMFEVILTRIRSFLDDPIWRGPLPSNGVMHVDECVEFHRLWSAMQFVYCIPVGTHEFTVEQCFGDGLHWAGCMIIVLLGQQRRFAVLDFCYHLLKVQKHDGKDEIIKNVPLKKMVERIRKFQILNDEIITILDKYLKSGDGEGTPVEHVRCFQPPIHQSLASS

Tests used:
[1] = biological target: B1; assay: AUC
Sra1 = biological target: B2; assay: co-expression and purification of the complex

Binder	stoichiometry N [1]	binding result (Sra1)
HSPC300 (natural protein) MAGQEDPVQREIHQDWANREYIEIITSSIKKIADFLNSFDMSCRSRLATLNEKLTALERRIEYIEARVTKGETLT	1	–
B1	–	binds
B2	1	–
Nap1 (natural protein) MSRSVLQPSQQKLAEKLTILNDRGVGMLTRLYNIKKACGDPKAKPSYLIDKNLESAVKFIVRKFPAVETRNNNQQLAQLQKEKSEILKNLALYYFTFVDVMEFKDHVCELLNTIDVCQVFFDITVNFDLTKNYLDLIITYTTLMILLSRIEERKAIIGLYNYAHEMTHGASDREYPRLGQMIVDYENPLKKMMEEFVPHSKSLSDALISLQMVYPRRNLSADQWRNAQLLSLISAPSTMLNPAQSDTMPCEYLSLDAMEKWIIFGFILCHGILNTDATALNLWKLALQSSSCLSLFRDEVFHIHKAAEDLFVNIRGYNKRINDIRECKEAAVSHAGSMHRERRKFLRSALKELATVLSDQPGLLGPKALFVFMALSFARDEIIWLLRHADNMPKKSADDFIDKHIAELIFYMEELRAHVRKYGPVMQRYYVQYLSGFDAVVLNELVQNLSVCPEDESIIMSSFVNTMTSLSVKQVEDGEVFDFRGMRLDWFRLQAYTSVSKASLGLADHRELGKMMNTIIFHTKMVDSLVEMLVETSDLSIFCFYSRAFEKMFQQCLELPSQSRYSIAFPLLCTHFMSCTHELCPEERHHIGDRSLSLCNMFLDEMAKQARNLITDICTEQCTLSDQLLPKHCAKTISQAVNKKSKKQTGKKGEPEREKPGVESMRKNRLVVTNLDKLHTALSELCFSINYVPNMVVWEHTFTPREYLTSHLEIRFTKSIVGMTMYNQATQEIAKPSELLTSVRAYMTVLQSIENYVQIDITRVFNNVLLQQTQHLDSHGEPTITSLYTNWYLETLLRQVSNGHIAYFPAMKAFVNLPTENELTFNAEEYSDISEMRSLSELLGPYGMKFLSESLMWHISSQVAELKKLVVENVDVLTQMRTSFDKPDQMAALFKRLSSVDSVLKRMTIIGVILSFRSLAQEALRDVLSYHIPFLVSSIEDFKDHIPRETDMKVAMNVYELSSAAGLPCEIDPALVVALSSQKSENISPEEEYKIACLLMVFVAVSLPTLASNVMSQYSPAIEGHCNNIHCLAKAINQIAAALFTIHKGSIEDRLKEFLALASSSLLKIGQETDKTTTRNRESVYLLLDMIVQESPFLTMDLLESCFPYVLLRNAYHAVYKQSVTSSA	1	–
Abi2 (subunit of the recombinant human WRC) (natural protein) MAELQMLLEEEIPGGRRALFDSYTNLERVADYCENNYIQSADKQRALEETKAYTTQSLASVAYLINTLANNVLQMLDIQASQLRRMESSINHISQTVDIHKEKVARREIGILTTNKNTSRTHKIIAPANLERPVRYIRKPIDYTILDDIGHGVKWLLRFKVSTQNMKMGGLPRTTPPTQKPPSPPMSGKGTLGRHSPYRTLEPVRPPVVPNDYVPSPTRNMAPSQQSPVRTASVNQRNRTYSSSGSSGGSHPSSRSSSRENSGSGSVGVPIAVPTPSPPSVFPAPAGSAGTPPLPATSASAPAPLVPATVPSSTAPNAAAGGAPNLADGFTSPTPPVVSSTPPTGHPVQFYSMNRPASRHTPPTIGGSLPYRRPPSITSQTSLQNQMNGGPFYSQNPVSDTPPPPPPVEEPVFDESPPPPPPPEDYEEEEAAVVEYSDPYAEEDPPWAPRSYLEKVVAIYDYTKDKEDELSFQEGAIIYVIKKNDDGWYEGVMNGVTGLFPGNYVESIMHYSE	1	–
